Each block holds one binder with its values, some of them ahead of it.
Columns and labels:
[1] = target: T1, sodium-dependent phosphate transport protein 2B (NaPi2b) (human, UniProt O95436 1-690); assay: fluorescence microscopy, goat anti-human IgG-AlexaFluor488, OVCAR3 cells, 100 nM mAb-LL37, 3 h
T1 construct: whole, on cells
T1 sequence (looked up): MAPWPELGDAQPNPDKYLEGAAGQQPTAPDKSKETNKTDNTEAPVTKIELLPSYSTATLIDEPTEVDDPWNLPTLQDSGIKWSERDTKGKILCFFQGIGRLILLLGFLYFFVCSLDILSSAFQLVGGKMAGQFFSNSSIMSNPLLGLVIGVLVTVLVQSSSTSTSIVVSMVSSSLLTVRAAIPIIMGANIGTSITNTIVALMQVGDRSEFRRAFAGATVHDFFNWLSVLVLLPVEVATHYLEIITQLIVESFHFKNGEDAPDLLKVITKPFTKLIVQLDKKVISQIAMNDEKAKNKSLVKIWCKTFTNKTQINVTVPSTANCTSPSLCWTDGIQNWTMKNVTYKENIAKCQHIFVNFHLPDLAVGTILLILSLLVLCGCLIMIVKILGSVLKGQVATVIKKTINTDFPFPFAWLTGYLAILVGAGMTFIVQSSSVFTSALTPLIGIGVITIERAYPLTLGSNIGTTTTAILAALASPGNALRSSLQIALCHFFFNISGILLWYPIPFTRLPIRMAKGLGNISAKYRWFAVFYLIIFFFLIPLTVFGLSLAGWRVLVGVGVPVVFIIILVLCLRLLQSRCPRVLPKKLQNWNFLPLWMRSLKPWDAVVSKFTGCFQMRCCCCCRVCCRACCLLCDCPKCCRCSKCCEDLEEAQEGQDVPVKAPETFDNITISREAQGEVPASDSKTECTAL
Description: (§1) Delivery assay. […] The permeabilized cells were then incubated with 5% (v/v) FBS, 0.05% (v/v) Tween-20 in PBS at 37 degree Celsius incubator for 30 minutes. […] After incubation, the labelled cells were washed twice with PBS, and stored in storage buffer [5% (v/v) FBS in PBS] at 4 degree Celsius until fluorescence microscope imaging.

[2] = target: T2, folate receptor (human, UniProt P15328 25-234); assay: summary sentence of Example 3
T2 construct: whole, on cells; also called folate receptor alpha

[3] = target: T3, Epithelial cell adhesion molecule (EpCAM) (human, UniProt P16422 24-314); assay: fluorescence microscopy, goat anti-human IgG-AlexaFluor488, LnCap cells, 100 nM mAb, 3 h
T3 construct: whole, on cells
T3 sequence (looked up): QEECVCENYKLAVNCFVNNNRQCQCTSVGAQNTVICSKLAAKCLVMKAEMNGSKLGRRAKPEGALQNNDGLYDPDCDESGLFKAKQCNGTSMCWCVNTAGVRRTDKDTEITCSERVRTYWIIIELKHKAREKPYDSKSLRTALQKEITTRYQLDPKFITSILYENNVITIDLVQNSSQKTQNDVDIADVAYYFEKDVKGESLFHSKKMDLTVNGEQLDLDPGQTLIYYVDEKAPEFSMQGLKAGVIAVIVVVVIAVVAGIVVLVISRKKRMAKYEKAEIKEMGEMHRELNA
Description: as §1

[4] = target: T1, sodium-dependent phosphate transport …; assay: fluorescence microscopy, goat anti-human IgG-AlexaFluor488, OVCAR3 cells, 100 nM mAb, 3 h
Description: as §1

[5] = target: T4, CD33A (human, UniProt P20138 18-364); assay: summary sentence of Example 3
T4 construct: whole, on cells

[6] = target: T3, Epithelial cell adhesion molecule …; assay: fluorescence microscopy, goat anti-human IgG-AlexaFluor488, LnCap cells, 100 nM mAb-LL37, 3 h
Description: as §1

T4 sequence (P20138 18-364): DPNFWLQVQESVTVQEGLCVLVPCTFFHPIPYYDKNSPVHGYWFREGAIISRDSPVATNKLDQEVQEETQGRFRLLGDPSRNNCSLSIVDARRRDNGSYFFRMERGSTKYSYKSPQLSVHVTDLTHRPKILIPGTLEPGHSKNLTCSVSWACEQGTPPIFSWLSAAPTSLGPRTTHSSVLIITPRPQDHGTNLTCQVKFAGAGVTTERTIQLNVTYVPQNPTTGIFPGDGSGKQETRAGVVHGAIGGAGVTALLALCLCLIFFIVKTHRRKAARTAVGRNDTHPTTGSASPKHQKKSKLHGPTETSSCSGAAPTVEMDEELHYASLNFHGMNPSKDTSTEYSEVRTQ
T2 sequence (P15328 25-234): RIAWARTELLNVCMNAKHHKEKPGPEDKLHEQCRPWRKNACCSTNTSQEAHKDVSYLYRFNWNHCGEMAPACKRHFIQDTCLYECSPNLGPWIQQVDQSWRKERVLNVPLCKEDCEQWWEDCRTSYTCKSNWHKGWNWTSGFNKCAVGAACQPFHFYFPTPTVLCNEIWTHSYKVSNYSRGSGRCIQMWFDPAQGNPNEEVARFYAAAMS

binding result [1]: binds
B1: Lifastuzumab-LL37 (LL37-linked anti-NaPi2b mAb) (antibody, human IgG1, kappa)
heavy: not shown
light: DIQMTQSPSSLSASVGDRVTITCRSSETLVHSSGNTYLEWYQQKPGKAPKLLIYRVSNRFSGVPSRFSGSGSGTDFTLTISSLQPEDFATYYCFQGSFNPLTFGQGTKVEIKRTVAAPSVFIFPPSDEQLKSGTASVVCLLNNFYPREAKVQWKVDNALQSGNSQESVTEQDSKDSTYSLSSTLTLSKADYEKHKVYACEVTHQGLSSPVTKSFNRGECGGGGSLPMTGGLLGDFFRKSKEKIGKEFKRIVQRIKDFLRNLVPRTES

binding result [2]: binds
B2: Anti-folate receptor mAb-LL37 (Mirvetuximab-LL37) (antibody, human IgG1, kappa)
heavy: not shown
light: DIVLTQSPLSLAVSLGQPAIISCKASQSVSFAGTSLMHWYHQKPGQQPRLLIYRASNLEAGVPDRFSGSGSKTDFTLTISPVEAEDAATYYCQQSREYPYTFGGGTKLEIKRTVAAPSVFIFPPSDEQLKSGTASVVCLLNNFYPREAKVQWKVDNALQSGNSQESVTEQDSKDSTYSLSSTLTLSKADYEKHKVYACEVTHQGLSSPVTKSFNRGECGGGGSLPETGGLLGDFFRKSKEKIGKEFKRIVQRIKDFLRNLVPRTES
notes: also called anti-folate receptor mAb (mirvetuximab) with LL37 conjugation

binding result [3]: binds
B3: Anti-EpCAM mAb, Citatuzumab (antibody, human IgG1, kappa)
heavy: not shown
light: DIQMTQSPSSLSASVGDRVTITCRSTKSLLHSNGITYLYWYQQKPGKAPKLLIYQMSNLASGVPSRFSSSGSGTDFTLTISSLQPEDFATYYCAQNLEIPRTFGQGTKVEIKRTVAAPSVFIFPPSDEQLKSGTASVVCLLNNFYPREAKVQWKVDNALQSGNSQESVTEQDSKDSTYSLSSTLTLSKADYEKHKVYACEVTHQGLSSPVTKSFNRGECGGGGSLPMTGGHG

binding result [4]: binds
B4: Anti-NaPi2b mAb, Lifastuzumab (antibody, human IgG1, kappa)
heavy: not shown
light: DIQMTQSPSSLSASVGDRVTITCRSSETLVHSSGNTYLEWYQQKPGKAPKLLIYRVSNRFSGVPSRFSGSGSGTDFTLTISSLQPEDFATYYCFQGSFNPLTFGQGTKVEIKRTVAAPSVFIFPPSDEQLKSGTASVVCLLNNFYPREAKVQWKVDNALQSGNSQESVTEQDSKDSTYSLSSTLTLSKADYEKHKVYACEVTHQGLSSPVTKSFNRGECGGGGSLPMTGGHG

binding result [5]: binds
B5: Anti-CD33A mAb (Vadastuximab)-LL37 (antibody, human IgG1, kappa)
heavy: not shown
light: DIQMTQSPSSLSASVGDRVTINCKASQDINSYLSWFQQKPGKAPKTLIYRANRLVDGVPSRFSGSGSGQDYTLTISSLQPEDFATYYCLQYDEFPLTFGGGTKVEIKRTVAAPSVFIFPPSDEQLKSGTASVVCLLNNFYPREAKVQWKVDNALQSGNSQESVTEQDSKDSTYSLSSTLTLSKADYEKHKVYACEVTHQGLSSPVTKSFNRGECGGGGSLPMTGGLLGDFFRKSKEKIGKEFKRIVQRIKDFLRNLVPRTES

binding result [6]: binds
B6: Citatuzumab-LL37 (LL37-conjugated anti-EpCAM antibody citatuzumab) (antibody, human IgG1, kappa)
heavy: not shown
light: DIQMTQSPSSLSASVGDRVTITCRSTKSLLHSNGITYLYWYQQKPGKAPKLLIYQMSNLASGVPSRFSSSGSGTDFTLTISSLQPEDFATYYCAQNLEIPRTFGQGTKVEIKRTVAAPSVFIFPPSDEQLKSGTASVVCLLNNFYPREAKVQWKVDNALQSGNSQESVTEQDSKDSTYSLSSTLTLSKADYEKHKVYACEVTHQGLSSPVTKSFNRGECGGGGSLPMTGGLLGDFFRKSKEKIGKEFKRIVQRIKDFLRNLVPRTES

— patent publication US20230227547A1 (IPROGEN BIOTECH, published 2023)
